Laboratory results as given in patent US5543312A, “Pastuerella haemolytica glycoprotease gene and the purified enzyme” (priority 1991, dated 1996).

Columns and labels:
[1] = test system: P. haemolytica glycoprotease; assay: Cleavage of cell surface antigens of surface-125I-iodinated KG1a cells, immunoprecipitation and SDS-PAGE; format: cell-based
Text: In our previous work, we have concentrated on the cleavage of human erythrocyte glycophorin A by the P. haemolytica glycoprotease Udoh et al. 1986. Univ. of Guelph; Abdullah et al. 1988. Proc. Canad. Fed. Biol. Socs.; Abdullah et al. 1990. Biochem. Soc. Trans. This substrate is well-characterized erythrocyte surface O-sialoglycoprotein and is readily available for biochemical analysis. However, it is clear that the physiological targets of this enzyme are not erthrocyte antigens but are probably O-sialoglycoproteins on the surfaces of leukocytes or endothelial cells. SDS-PAGE analysis of immunoprecipitations performed with specific monoclonal antibodies on lysates of surface-^125 I-iodinated KG1a cells, a primitive myeloid/T-lymphois stem cell line Koeffler et al. 1977. Science 200, have shown that the O-sialoglycoprotein cell surface antigens CD34 Civin et al. 1989. Leucocyte Typing IV, Oxford Univ. Press. CD43/leucosialin Killeen et al. 1987. EMBO J.; Pallant et al. 1989. PNAS, CD44/lyaluronic acid receptor Stamenkovic et al. 1989. Cell; Aruffo et al. 1990. Cell and CD45/leucocyte common antigen Thomas et al. 1989. Annu. REv. Immunol.; Pulido et al. 1989. J. Immunol. are all cleaved by the glycoprotease. Although the glycoprotease-sensitive structures contain some N-linked glycans they are all extensively glycosylated with O-linked carbohydrates. However, the N-linked glycoproteins CD18/11^a, 11^b, 11^c /leukocyte integrins Arnaout et al. 1990. Blood, CD71/transferrin receptor Shae et al. 1986. Cell, HLA class I Owen et al. 1980. J. Biol. Chem., and 8A3 antigens Sutherland et al. Blood (in press, Jan. 1991), which lack O-sialo-residues, were resistant to the action of the enzyme.

[2] = target: P. haemolytica A1 protease (Mannheimia haemolytica, UniProt P36175); format: biochemical; conditions: FIG. 9; SDS-PAGE autoradiography
[3] = test system: P. haemolytica glycoprotease; assay: Removal of CD34 epitopes on KG1/KG1a cells (fluorescence microscopy, flow cytometry, western blotting); format: cell-based
Text: Blood; Katz et al. 1985. Leuk. Res. which detects a sialic acid-dependent epitope on this glycoprotein Watt et al. 1987. Leukaemia; and Sutherland et al. 1988. Leukaemia. We have assessed the ability of this enzyme to remove CD34 epitopes recognized by all seven CD34 antibodies designated by the 4th Leucocyte Antigen Workshop Civin et al. 1989. Leukocyte Typing IV, Oxford Univ. Press. We have shown by fluorescence microscopy, quantitative flow cytometry and western blotting, that sialic acid-dependent epitopes, recognized by antibodies B1.3C5, MY10 Civin et al. 1984. J. Immunol. and 12.8 Andrews et la. 1986. […] Leukaemia and 188.24 Sutherland et al. Leukaemia. In contrast, the sialic acid-independent epitopes by 115.2 Andrew et al. 1986. Blood and TUK3 Civin et al. 1989. Leucocyte Typing IV, Oxford Univ. […] As previously for the cleavage of glycophorin, the enzyme requires the presence of sialyted residues on its substrate and the prior treatment of KGla cells with neuraminidase reduced the ability of the glycoprotease to cleave the ICH3 and 188.24 epitopes Sutherland et al. 1990. Blood (in press). The differential sensitivity of certain CD34 epitopes to cleavage with either neuraminidase and/or glycoprotease establishes 3 classes of epitopes:(Class 1) those like MY 10,B1.3C5 and 12.8 which are removed both by neuraminidase and by the glycoprotease;(Class II) those like ICH3 and 188.24 which are removed only by the glycoprotease; (Class III) those like TUK3 and 115.2

B1: CD45/leucocyte common antigen: O-sialoglycoprotein cell surface antigen, leukocyte common antigen (protein)
chain: QSPTPSPTGLTTAKMPSVPLSSDPLPTHTTAFSPASTFERENDFSETTTSLSPDNTSTQVSPDSLDNASAFNTTGVSSVQTPHLPTHADSQTPSAGTDTQTFSGSAANAKLNPTPGSNAISDVPGERSTASTFPTDPVSPLTTTLSLAHHSSAALPARTSNTTITANTSDAYLNASETTTLSPSGSAVISTTTIATTPSKPTCDEKYANITVDYLYNKETKLFTAKLNVNENVECGNNTCTNNEVHNLTECKNASVSISHNSCTAPDKTLILDVPPGVEKFQLHDCTQVEKADTTICLKWKNIETFTCDTQNITYRFQCGNMIFDNKEIKLENLEPEHEYKCDSEILYNNHKFTNASKIIKTDFGSPGEPQIIFCRSEAAHQGVITWNPPQRSFHNFTLCYIKETEKDCLNLDKNLIKYDLQNLKPYTKYVLSLHAYIIAKVQRNGSAAMCHFTTKSAPPSQVWNMTVSMTSDNSMHVKCRPPRDRNGPHERYHLEVEAGNTLVRNESHKNCDFRVKDLQYSTDYTFKAYFHNGDYPGEPFILHHSTSYNSKALIAFLAFLIIVTSIALLVVLYKIYDLHKKRSCNLDEQQELVERDDEKQLMNVEPIHADILLETYKRKIADEGRLFLAEFQSIPRVFSKFPIKEARKPFNQNKNRYVDILPYDYNRVELSEINGDAGSNYINASYIDGFKEPRKYIAAQGPRDETVDDFWRMIWEQKATVIVMVTRCEEGNRNKCAEYWPSMEEGTRAFGDVVVKINQHKRCPDYIIQKLNIVNKKEKATGREVTHIQFTSWPDHGVPEDPHLLLKLRRRVNAFSNFFSGPIVVHCSAGVGRTGTYIGIDAMLEGLEAENKVDVYGYVVKLRRQRCLMVQVEAQYILIHQALVEYNQFGETEVNLSELHPYLHNMKKRDPPSEPSPLEAEFQRLPSYRSWRTQHIGNQEENKSKNRNSNVIPYDYNRVPLKHELEMSKESEHDSDESSDDDSDSEEPSKYINASFIMSYWKPEVMIAAQGPLKETIGDFWQMIFQRKVKVIVMLTELKHGDQEICAQYWGEGKQTYGDIEVDLKDTDKSSTYTLRVFELRHSKRKDSRTVYQYQYTNWSVEQLPAEPKELISMIQVVKQKLPQKNSSEGNKHHKSTPLLIHCRDGSQQTGIFCALLNLLESAETEEVVDIFQVVKALRKARPGMVSTFEQYQFLYDVIASTYPAQNGQVKKNNHQEDKIEFDNEVDKVKQDANCVNPLGAPEKLPEAKEQAEGSEPTSGTEGPEHSVNGPASPALNQGS
modifications: O-sialoglycosylated
Cleavage of cell surface antigen by the glycoprotease [1]: cleaved

B2: CD43/leucosialin: O-sialoglycoprotein cell surface antigen, leukosialin/sialophorin (protein)
chain: STTAVQTPTSGEPLVSTSEPLSSKMYTTSITSDPKADSTGDQTSALPPSTSINEGSPLWTSIGASTGSPLPEPTTYQEVSIKMSSVPQETPHATSHPAVPITANSLGSHTVTGGTITTNSPETSSRTSGAPVTTAASSLETSRGTSGPPLTMATVSLETSKGTSGPPVTMATDSLETSTGTTGPPVTMTTGSLEPSSGASGPQVSSVKLSTMMSPTTSTNASTVPFRNPDENSRGMLPVAVLVALLAVIVLVALLLLWRRRQKRRTGALVLSRGGKRNGVVDAWAGPAQVPEEGAVTVTVGGSGGDKGSGFPDGEGSSRRPTLTTFFGRRKSRQGSLAMEELKSGSGPSLKGEEEPLVASEDGAVDAPAPDEPEGGDGAAP
modifications: O-sialoglycosylated
Cleavage of cell surface antigen by the glycoprotease [1]: cleaved

B3: glycophorin A: major sialoglycopeptide of the human erythrocyte membrane (protein, UniProt P02724 20-150, looked up)
Glycophorin-A: LSTTEVAMHTSTSSSVTKSYISSQTNDTHKRDTYAATPRAHEVSEISVRTVYPPEEETGERVQLAHHFSEPEITLIIFGVMAGVIGTILLISYGIRRLIKKSPSDVKPLPSPDTDVPLSSVEIENPETSDQ
Hydrolysis of [125I]-glycophorin A forms by P. haemolytica A1 pH 4.5 fraction [2]: total hydrolysis

B4: CD34: O-sialoglycoprotein cell surface antigen, primitive bone marrow stem cell antigen (protein, UniProt P28906 32-385, looked up)
Hematopoietic progenitor cell …: SLDNNGTATPELPTQGTFSNVSTNVSYQETTTPSTLGSTSLHPVSQHGNEATTNITETTVKFTSTSVITSVYGNTNSSVQSQTSVISTVFTTPANVSTPETTLKPSLSPGNVSDLSTTSTSLATSPTKPYTSSSPILSDIKAEIKCSGIREVKLTQGICLEQNKTSSCAEFKKDRGEGLARVLCGEEQADADAGAQVCSLLLAQSEVRPQCLLLVLANRTEISSKLQLMKKHQSDLKKLGILDFTEQDVASHQSYSQKTLIALVTSGALLAVLGITGYFLMNRRSWSPTGERLGEDPYYTENGGGQGYSSGPGTSPEAQGKASVNRGAQENGTGQATSRNGHSARQHVVADTEL
Cleavage of cell surface antigen by the glycoprotease [1]: cleaved | Removal of sialic acid-dependent epitopes recognized by antibodies B1.3C5, MY10 and 12.8 [3]: totally removed | Removal of sialic acid-independent epitopes recognized by ICH3 and 188.24 [3]: totally removed | Sensitivity of sialic acid-independent epitopes recognized by 115.2 and TUK3 [3]: totally resistant | Cleavage of CD34, loss of reactivity with anti-CD34 monoclonal antibody B1.3C5 ([3]; KG1 cells): readily cleaved
